Measurements: article PMC4694755 (Molecular Biology of the Cell, 2016)

Target: Mouse importin β (mouse, UniProt P70168 1-876)
Assay: SPR

Mouse importin β, sequence (P70168 whole entry): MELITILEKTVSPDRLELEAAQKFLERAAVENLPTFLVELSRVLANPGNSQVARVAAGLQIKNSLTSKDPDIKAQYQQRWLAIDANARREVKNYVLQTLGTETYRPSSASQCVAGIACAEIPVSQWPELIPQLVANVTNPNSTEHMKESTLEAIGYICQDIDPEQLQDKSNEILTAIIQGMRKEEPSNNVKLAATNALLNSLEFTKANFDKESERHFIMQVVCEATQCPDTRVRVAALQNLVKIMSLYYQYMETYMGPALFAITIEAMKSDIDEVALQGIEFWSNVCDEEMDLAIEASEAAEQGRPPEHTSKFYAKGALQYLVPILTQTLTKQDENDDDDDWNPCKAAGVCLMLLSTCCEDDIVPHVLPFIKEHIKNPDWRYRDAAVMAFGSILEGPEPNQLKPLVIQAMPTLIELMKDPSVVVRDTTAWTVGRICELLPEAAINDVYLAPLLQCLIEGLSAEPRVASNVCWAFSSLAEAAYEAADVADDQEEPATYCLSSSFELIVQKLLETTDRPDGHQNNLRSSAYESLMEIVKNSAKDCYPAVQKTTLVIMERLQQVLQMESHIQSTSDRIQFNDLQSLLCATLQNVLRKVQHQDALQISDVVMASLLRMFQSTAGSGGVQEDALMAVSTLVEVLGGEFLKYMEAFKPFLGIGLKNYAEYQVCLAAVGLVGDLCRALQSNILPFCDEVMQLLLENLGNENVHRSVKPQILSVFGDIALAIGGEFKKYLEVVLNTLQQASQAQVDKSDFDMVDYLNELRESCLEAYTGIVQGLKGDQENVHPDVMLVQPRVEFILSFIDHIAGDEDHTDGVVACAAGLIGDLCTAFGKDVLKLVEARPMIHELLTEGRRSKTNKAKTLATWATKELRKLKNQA

B1: importin β–binding domain of rat importin α (IBB, amino acids 1–66) (domain or fragment)
chain: not shown
koff: 0.00132 s⁻¹
kon: 99400 M⁻¹ s⁻¹
